Assay results as given in patent US20140017255A1 (E R SQUIBB AND SONS L L C, published 2014).

Experiments:
[1] = target: T1, human BTLA expressed on CHO cells (human, UniProt Q7Z6A9 31-289); test: flow cytometry, antibody titrated on CHO cells expressing human BTLA, PE-anti-huFc detection, FL2 GMFI
T1 construct: also called CHO/huBTLA; hBTLA

cynomolgus BTLA = target: T2, cynomolgus BTLA (cynomolgus, UniProt A0A2K5W7M7 31-289); test: flow cytometry, antibody titrated on CHO cells expressing cynomolgus BTLA, PE-anti-huFc detection, FL2 GMFI
T2 construct: whole, on cells; also called cyno BTLA; monkey BTLA
T2 sequence: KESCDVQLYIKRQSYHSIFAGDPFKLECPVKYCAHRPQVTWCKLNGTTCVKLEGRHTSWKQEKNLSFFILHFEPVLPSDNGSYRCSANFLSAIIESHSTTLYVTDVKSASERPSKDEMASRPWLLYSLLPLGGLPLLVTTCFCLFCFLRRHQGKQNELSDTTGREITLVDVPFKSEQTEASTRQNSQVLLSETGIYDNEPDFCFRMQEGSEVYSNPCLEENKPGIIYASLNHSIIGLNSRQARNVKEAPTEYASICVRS

T1 sequence (Q7Z6A9 other isoform, or with tags, fused parts or gaps limits assumed): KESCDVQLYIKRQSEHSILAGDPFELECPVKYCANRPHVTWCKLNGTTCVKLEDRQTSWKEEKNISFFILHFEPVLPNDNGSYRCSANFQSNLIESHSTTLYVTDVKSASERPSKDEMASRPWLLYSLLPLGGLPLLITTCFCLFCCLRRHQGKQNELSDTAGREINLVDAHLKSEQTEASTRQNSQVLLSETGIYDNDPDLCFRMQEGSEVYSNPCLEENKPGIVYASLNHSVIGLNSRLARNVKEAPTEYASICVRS

B1: hu Mab8D5 (IgG4 version, fully human monoclonal agonist anti-BTLA antibody) (antibody, V domains shown, not shown: a dimerising Fc or GST)
VH: EVQLVESGGGLVQPGGSLRLSCAASGFTISSYDMHWVRQATGKGLEWVSVIGPAGDTYYPGSVKGRFTISRENAKNSLYLQMNSLRAGDTAVYYCAREGMAAHNYYGMDVWGQGTTVTVSS
VL: not shown
notes: also called hu Mab8D5 G4; 8D5 (G4) agonist
- EC50 [1]: 12.4 nM
- EC50 (cynomolgus BTLA): 13.6 nM
